Measurements as given in PMC11464722 (Nature Communications, 2024).

Assays:
[1] = molecular target: SNAP-tagged murine µOR on HEK293 cells (murine, UniProt P42866 1-398); assay: AlphaScreen or HTRF
[2] = molecular target: SNAP-tagged murine µOR on HEK293 cells (murine, UniProt P42866, SNAP-Lumi4-Tb (terbium cryptate) on the SNAP tag); assay: AlphaScreen or HTRF
[3] = molecular target: murine κ-opioid receptor, ssf-tagged, on HEK293 cells (Mus musculus (Mouse)., UniProt P33534); assay: flow cytometry on cells
[4] = molecular target: murine nociceptin opioid receptor, ssf-tagged, on HEK293 cells (Mus musculus (Mouse)., UniProt P35377); assay: flow cytometry on cells
[5] = molecular target: human μ-opioid receptor, ssf-tagged, on HEK293 cells (Homo sapiens (Human)., UniProt P35372); assay: immunostaining of cells or tissue
Sequence of human μ-opioid receptor, ssf-tagged, on HEK293 cells (P35372 whole entry): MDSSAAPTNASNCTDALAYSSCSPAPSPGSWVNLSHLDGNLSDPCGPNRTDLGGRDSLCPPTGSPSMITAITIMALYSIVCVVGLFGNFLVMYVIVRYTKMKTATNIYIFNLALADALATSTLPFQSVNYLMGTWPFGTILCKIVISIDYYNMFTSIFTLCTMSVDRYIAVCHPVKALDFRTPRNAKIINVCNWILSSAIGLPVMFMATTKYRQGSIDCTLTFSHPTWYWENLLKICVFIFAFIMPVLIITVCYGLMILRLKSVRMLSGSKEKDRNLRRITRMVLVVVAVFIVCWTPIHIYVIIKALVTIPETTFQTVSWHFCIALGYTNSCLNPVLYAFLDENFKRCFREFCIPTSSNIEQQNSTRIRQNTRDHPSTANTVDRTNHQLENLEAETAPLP

Sequence of SNAP-tagged murine µOR on HEK293 cells (murine, UniProt P42866 1-398) (P42866 whole entry): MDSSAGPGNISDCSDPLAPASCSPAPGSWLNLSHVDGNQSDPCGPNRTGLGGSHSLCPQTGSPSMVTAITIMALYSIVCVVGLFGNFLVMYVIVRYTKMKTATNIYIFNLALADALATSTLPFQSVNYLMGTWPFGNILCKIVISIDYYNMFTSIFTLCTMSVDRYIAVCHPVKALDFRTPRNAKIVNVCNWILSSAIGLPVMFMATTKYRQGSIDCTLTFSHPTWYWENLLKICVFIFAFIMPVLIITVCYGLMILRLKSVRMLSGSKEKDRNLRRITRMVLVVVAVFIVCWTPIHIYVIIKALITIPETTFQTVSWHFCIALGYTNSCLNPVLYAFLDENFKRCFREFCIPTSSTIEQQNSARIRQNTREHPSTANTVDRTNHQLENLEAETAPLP
Sequence of murine nociceptin opioid receptor, ssf-tagged, on HEK293 cells (P35377 whole entry): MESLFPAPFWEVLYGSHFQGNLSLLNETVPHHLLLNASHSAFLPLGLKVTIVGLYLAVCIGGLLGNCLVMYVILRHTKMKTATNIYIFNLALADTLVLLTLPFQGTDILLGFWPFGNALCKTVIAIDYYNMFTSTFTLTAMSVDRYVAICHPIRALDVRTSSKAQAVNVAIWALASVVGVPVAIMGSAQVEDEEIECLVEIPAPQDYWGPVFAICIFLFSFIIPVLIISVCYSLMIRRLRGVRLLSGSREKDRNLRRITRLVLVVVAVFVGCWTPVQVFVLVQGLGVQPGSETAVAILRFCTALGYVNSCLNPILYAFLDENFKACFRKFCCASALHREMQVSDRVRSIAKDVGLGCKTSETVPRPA
Sequence of SNAP-tagged murine µOR on HEK293 cells (murine, UniProt P42866, SNAP-Lumi4-Tb (terbium cryptate) on the SNAP tag) (P42866 whole entry): as the sequence (P42866 whole entry) above
Sequence of murine κ-opioid receptor, ssf-tagged, on HEK293 cells (P33534 whole entry): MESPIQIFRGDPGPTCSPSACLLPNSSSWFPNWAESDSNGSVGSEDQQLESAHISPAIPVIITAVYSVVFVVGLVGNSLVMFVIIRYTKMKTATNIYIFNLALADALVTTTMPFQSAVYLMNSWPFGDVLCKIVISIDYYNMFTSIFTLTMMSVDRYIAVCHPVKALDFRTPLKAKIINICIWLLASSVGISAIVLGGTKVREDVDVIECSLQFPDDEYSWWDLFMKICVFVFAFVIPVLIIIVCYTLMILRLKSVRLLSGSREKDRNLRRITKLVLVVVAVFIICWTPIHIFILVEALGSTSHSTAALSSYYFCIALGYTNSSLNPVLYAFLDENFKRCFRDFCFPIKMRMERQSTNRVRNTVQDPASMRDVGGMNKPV

KYYSGSYFYKSEYD [linear peptide 6 (NbE CDR3 residues 100-113, 14 residues)]
Ki [1]: 3.1 µM

Ac-YYSGSYFYKSEY-NH2 [linear peptide 5 (NbE CDR3, 12 residues)]
Ki [1]: 1.3 µM

B1: NbE (NbE-6xHis, unlabeled) (VHH)
VHH: QVQLVESGGGLVQAGGSLRLSCAASGSISSISTMGWYRQAPGNERELVAAITSGGSTNYADSVKGRFTISRDNAKNTVYLQMNSLKPEDTAVYYCNFKYYSGSYFYKSEYDYWGQGTQVTVSS
Ki [2]: 0.018 µM

B2: NbE conjugated with Alexa Fluor 488 (VHH)
VHH: B1 VHH
binding result [3]: no binding (tested: 10 μM) | binding result [4]: no binding (tested: 10 μM)

B3: HA-tagged NbE (VHH)
VHH: B1 VHH
binding result [5]: binds
